What was measured:
[1] = biological target: MUC1 tandem repeat peptide …-T(X)-… with Galβ1-3GalNAcalpha (TF) at T (human); experiment: antigen ELISA on TF-PDTR MUC1 peptide, purified antibody [panel Binding to TF-MUC1]
[2] = biological target: MUC1 tandem repeat peptide …-T(X)-… with GalNAcalpha (Tn) at T (human); experiment: antigen ELISA on Tn-PDTR MUC1 peptide, purified antibody [panel Binding to Tn-MUC1]
Sequence of MUC1 tandem repeat peptide …-T(X)-… with GalNAcalpha (Tn) at T (human) (peptide, as listed by the source): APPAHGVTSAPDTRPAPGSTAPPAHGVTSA

Sequence of MUC1 tandem repeat peptide …-T(X)-… with Galβ1-3GalNAcalpha (TF) at T (human) (peptide, as listed by the source): as above

EC50 (read off the curve) [1]: 8 ng/mL
EC50 (read off the curve) [2]: 10 ng/mL
Substance: PankoMab N54W (antibody)

From US20250257149A1
